Data taken from US20210388097A1 (SORRENTO THERAPEUTICS, published 2021).

B2: Mutant-1 human BCMA protein-mouse Fc (Fc fusion)
chain: MLQMAGQCSQNEYFDSGGHACIPCQLRCSSNTPPLTCQRYCNASVTNSVKGTNAGLGGLVDYKDDDDKTHTCPPCKCPAPNLLGGPSVFIFPPKIKDVLMISLSPIVTCVVVDVSEDDPDVQISWFVNNVEVHTAQTQTHREDYNSTLRVVSALPIQHQDWMSGKEFKCKVNNKDLPAPIERTISKPKGSVRAPQVYVLPPPEEEMTKKQVTLTCMVTDFMPEDIYVEWTNNGKTELNYKNTEPVLDSDGSYFMYSKLRVEKKNWVERNSYSCSVVHEGLHNHHTTKSFSRTPGK
notes: also called mutant-1 human BCMA-mouse Fc (17G-18G); mutant-1 BCMA protein
B3: Mutant-2 human BCMA protein-mouse Fc (Fc fusion)
chain: MLQMAGQCSQNEYFDSLLHACIPCQLRCSSNPPGTCQRYCNASVTNSVKGTNAGLGGLVDYKDDDDKTHTCPPCKCPAPNLLGGPSVFIFPPKIKDVLMISLSPIVTCVVVDVSEDDPDVQISWFVNNVEVHTAQTQTHREDYNSTLRVVSALPIQHQDWMSGKEFKCKVNNKDLPAPIERTISKPKGSVRAPQVYVLPPPEEEMTKKQVTLTCMVTDFMPEDIYVEWTNNGKTELNYKNTEPVLDSDGSYFMYSKLRVEKKNWVERNSYSCSVVHEGLHNHHTTKSFSRTPGK
notes: also called mutant-2 human BCMA-mouse Fc (del32-35G); mutant-2 BCMA protein

How the values were obtained:
[1] = biological target: T1, his-tagged mouse BCMA protein (ACROBiosystems, catalog # BCA-M52H3) (mouse, UniProt O88472 1-49); assay: ELISA, his-tagged BCMA on Ni-NTA plate at 2 µg/mL, anti-human Fc HRP
T1 construct: Bought protein; not shown: his tag
T1 chain (looked up): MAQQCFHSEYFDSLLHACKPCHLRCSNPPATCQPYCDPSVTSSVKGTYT
Protocol: Cross-reactivity of the anti-BCMA antibodies with his-tagged BCMA protein from human, cynomolgus or mouse, were analyzed by ELISA assay. The Ni-NTA plate was coated with his-tagged BCMA proteins (listed in Example 2 above) at 2 μg/mL, then reacted with an anti-BCMA antibody at 20 μg/mL, and reacted with anti-human Fc HRP (KPL Scientific, catalog #5220-0279) at 1:2500 dilution. […] Each set includes 5 test antigens or buffer, from left to right: negative control antigen, his-tagged mouse BCMA protein, his-tagged cynomolgus BCMA protein, his-tagged human BCMA protein, and Dulbecco's Phosphate-Buffered Saline.

BCMA on MM1R cells = biological target: T2, BCMA on MM1R cells (human, UniProt Q02223); assay: flow cytometry on MM1R cells, 5x serial dilution, FITC goat anti-human IgG F(ab')2, GeoMean BL1-H
T2 construct: full length, on the surface of MM1R multiple myeloma cells; also called MM1R multiple myeloma cell line
T2 sequence (receptor, looked up): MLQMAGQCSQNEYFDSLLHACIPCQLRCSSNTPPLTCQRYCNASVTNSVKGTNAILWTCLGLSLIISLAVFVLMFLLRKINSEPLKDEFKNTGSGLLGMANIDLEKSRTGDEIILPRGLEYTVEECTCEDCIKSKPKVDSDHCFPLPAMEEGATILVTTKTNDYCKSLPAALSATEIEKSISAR
Source text: Flow cytometry was used to test antibody binding to multiple myeloma cell line MM1R, using various anti-BCMA antibodies (5× serial dilution) and 80,000 cells per well. The secondary antibody was FITC AffiniPure FAB2 fragment goat anti-human IgG (H+L) (from Jackson Immuno Research). […] A BL-1 detector (IntelliCyt iQue Screener Plus) which detects at 530 nm was used. The geometric mean is reported.

[2] = biological target: T3, human BAFFR/TNFRSF13C (CD268) Fc tag, from Sino Biological (human, UniProt Q96RJ3 1-71, limits assumed); assay: bio-layer interferometry, antibody coupled to AR2G sensor, BAFFR in solution
T3 construct: Bought protein; not shown: Fc tag
T3 sequence (looked up): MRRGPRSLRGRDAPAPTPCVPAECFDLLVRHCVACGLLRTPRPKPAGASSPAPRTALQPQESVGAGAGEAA
Protocol: (§1) Bio-layer interferometry was used to measure cross-binding between (1) two different anti-BCMA antibodies (BCA7-2C5 or BB C11D5) or a control isotype, and (2) various human antigens including TACI and BAFFR.
(§2) Immobilization of antibody was achieved through standard EDC-catalyzed amide bond formation to create a covalent bond between a reactive amine on the protein and the carboxy-terminated biosensor surface. Briefly, AR2G sensors (OctetRED96e from ForteBio) were activated by EDC-NHS for 6 minutes, then 5 ug/ml antibodies were loaded (BCA7-2C5 antibody, Bluebird C11D5 chimeric antibody, or a human IgG isotype antibody) in 10 mM acetate buffer pH 5.0 for 6 minutes, followed by quenching for 6 minutes with 1M ethanolamine pH 8.5. The 3 minutes baseline step removed any unbound antibody from the biosensor, followed by 1.5 minutes each for association of three analyte proteins TACI (human TACI/TNFRSF13B (CD267) His-tag, from Sino Biological, 1 ug/mL in PBS), BAFFR (human BAFFR/TNFRSF13C (CD268) Fc tag) from Sino Biological, 2 ug/mL in PBS), and human BCMA protein (in-house made with mouse Fc, 2 ug/mL in PBS).

[3] = biological target: B2; assay: bio-layer interferometry, antibody (100 nM) loaded on AR2G sensor, BCMA-mouse Fc in solution
Protocol: (§3) The results of the protein-protein binding assays described in Example 8 were used to design an epitope mapping assay using bio-layer interferometry. Various anti-BCMA antibodies (2C5, 2E1, 4C9, 6G8, Bluebird C11D5, GSK J6M0, or isotype control) (100 nM) were loaded onto AR2G sensors and reacted with buffer or one of three types of human BCMA proteins including: including: wild type human BCMA-mouse Fc (SEQ ID NO:5), mutant-1 human BCMA-mouse Fc (double mutation 17G-18G; SEQ ID NO:6), or mutant-2 human BCMA-mouse Fc (mutation del32-35G; SEQ ID NO:7).

[4] = biological target: T4, Wild type human BCMA protein-mouse Fc (human); assay: as above
T4 construct: also called wild type human BCMA-mouse Fc; wild type BCMA protein
T4 chain: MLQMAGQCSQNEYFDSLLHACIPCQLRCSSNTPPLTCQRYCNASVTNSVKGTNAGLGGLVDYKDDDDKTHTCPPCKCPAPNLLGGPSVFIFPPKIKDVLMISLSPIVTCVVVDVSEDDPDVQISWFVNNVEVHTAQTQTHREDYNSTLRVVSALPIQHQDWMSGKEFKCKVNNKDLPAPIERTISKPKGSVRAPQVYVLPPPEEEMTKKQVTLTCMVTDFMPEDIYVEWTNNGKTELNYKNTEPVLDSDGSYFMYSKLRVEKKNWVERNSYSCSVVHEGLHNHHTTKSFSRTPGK
Protocol: as §3

[5] = biological target: B3; assay: as above
Protocol: as §3

[6] = biological target: T5, his-tagged human BCMA protein (ACROBiosystems, catalog # BCA-H522y-100 ug) (human, UniProt Q02223 1-54); assay: ELISA, his-tagged BCMA on Ni-NTA plate at 2 µg/mL, antibody at 20 µg/mL
T5 construct: limits of the bought construct are not otherwise stated; also called recombinant his-tagged human BCMA; not shown: his tag of the bought protein
T5 sequence: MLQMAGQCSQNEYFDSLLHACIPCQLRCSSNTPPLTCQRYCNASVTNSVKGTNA

[7] = biological target: T6, human TACI/TNFRSF13B (CD267) His-tag, from Sino Biological (human, UniProt O14836 1-166, limits assumed); assay: bio-layer interferometry, antibody coupled to AR2G sensor, TACI in solution
T6 construct: Bought protein; not shown: His-tag
T6 sequence (looked up): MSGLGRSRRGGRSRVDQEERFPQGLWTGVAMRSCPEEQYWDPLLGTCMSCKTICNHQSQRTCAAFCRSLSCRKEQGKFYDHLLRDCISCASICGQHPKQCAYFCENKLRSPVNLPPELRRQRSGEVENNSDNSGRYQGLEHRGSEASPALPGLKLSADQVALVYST
Protocol: as §1, §2

[8] = biological target: T7, human APRIL protein (R&D Systems, catalog #5860-AP-010/CF) (human, UniProt O75888 105-250, limits assumed); assay: bio-layer interferometry, APRIL on AR2G sensor, BCMA-mouse Fc in solution
T7 construct: Bought protein; also called human APRIL protein from R&D Systems; TNF13
T7 sequence (looked up): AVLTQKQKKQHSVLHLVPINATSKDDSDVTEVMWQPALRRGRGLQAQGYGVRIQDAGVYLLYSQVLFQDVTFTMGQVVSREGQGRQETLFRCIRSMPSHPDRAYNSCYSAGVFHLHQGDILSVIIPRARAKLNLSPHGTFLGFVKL
Protocol: (§4) Bio-layer interferometry was also used to measure binding between APRIL protein, and wild type or mutant BCMA proteins. Human APRIL protein (R&D Systems, catalog #5860-AP-010/CF) was loaded onto an Ar2G sensor (OctetRET96e) and reacted with 2.5 μg/mL of one of three types of human BCMA proteins including: wild type human BCMA-mouse Fc (SEQ ID NO:5), mutant-1 human BCMA-mouse Fc (17G-18G; SEQ ID NO:6), or mutant-2 human BCMA-mouse Fc (de132-35G; SEQ ID NO:7).

[9] = biological target: T7, human APRIL protein (R&D Systems, …); assay: bio-layer interferometry, APRIL on AR2G sensor, BCMA-mouse Fc at 2.5 µg/mL
Protocol: as §4

B1: Bluebird C11D5 antibody (BB anti-BCMA Ab) (antibody, V domains shown)
VH: QIQLVQSGPELKKPGETVKISCKASGYTFTDYSINWVKRAPGKGLKWMGWINTETREPAYAYDFRGRFAFSLETSASTAYLQINNLKYEDTATYFCALDYSYAMDYWGQGTTLTVSS
VL: DIVLTQSPASLAMSLGKRATISCRASESVSVIGAHLIHWYQQKPGQPPKLLIYLASNLETGVPARFSGSGSGTDFTLTIDPVEEDDVAIYSCLQSRIFPRTFGGGTKLEIK
notes: Comparator anti-BCMA antibody; also called BB C11D5; Bluebird antibody
B1: no binding (tested: 20 µg/mL) [1]; binds (BCMA on MM1R cells); no binding (tested: 2 ug/mL) [2]. B1: binds [3]; binds [4]; binds [5]. B1: binds [6]; no binding (tested: 1 ug/mL) [7].

B2: no binding (tested: 2.5 µg/mL) [8].

B3: binds [9].
